The target of assay [1] is T1, Control peptide.
T1 peptide: CTHHPVADAEATLRC
Briefly: flow cytometry on Bioplex beads coated with the mutated peptide, PE-conjugated goat anti-mouse antibody. A general note: In flow cytometry, cells or beads pass a laser one at a time.
Method: (§1) The binding detection was carried out by flow cytometry using a PE-conjugated goat anti-mouse antibody. […] Measurements were performed in triplicate (n=3); error bars indicate SD.
As specificity (negative) controls, uncoupled beads or beads coated with a mutated peptide [sequence]

For assay [2], the target named is HLA-G6 recombinant protein (without β2M association) (human, UniProt P17693 25-227). Briefly: flow cytometry titration on HLA-G6 coated Bioplex beads.
Method: as §1
(§2) Flow cytometry analyses were performed using LSR FORTESSA (Beckton Dickinson, Le Pont-de-Claix, France); data were analyzed with FlowJo X software (Tree star, Ashland, USA).
Assay [3] concerns the target T2, HLA-G5 recombinant protein (without β2M association) (human, UniProt P17693-5 25-319).
T2 construct: domain: α1α2α3 domains of HLA-G5; No β2M; Coupled to Bioplex beads; also called hβ2M-free HLA-G5; recombinant HLA-G5 protein
In words: flow cytometry titration on β2M-free HLA-G5 coated Bioplex beads.
Method: as §1, §2

B1: anti-HLA-G monoclonal antibody 15E7 (antibody, V domains shown)
VH: QVQLQQPGAELVRPGSSVKLSCKASGYTFTDYWMDWVKQRPGQGLEWIGTIYPSDSSTHYNQEFKGKATMTVDKSSSTAYMHLSSLTSEDSAVYYCAREGLAGVFYFDYWGQGTTLTVSS
VL: DVLMTQIPFSLPVSLGDQASISCRSSQSIVHRSGNTYLEWYLQKPGQSPKLLIYKVSNRFSGVPDRFSGSGSGTDFTLKISRVEAEDLGVYYCFQGSHLPPTFGGTTLEIK
notes: also called 15E7 mAb; 15E7 Mab
As for B1, the binding result in assay [1] is “no binding (tested: 250 ng/ml)”. Further, the figures for the EC50 in assay [2] and in assay [3] were 0.12 µg/mL and 0.028 µg/mL, respectively.

What is called EC50 is the midpoint of the concentration-response curve.
